Here are results for one molecule from patent US20190367606A1 (CENTRE FOR DRUG RESEARCH AND DEVELOPMENT, published 2019).

In experiment [1] the target is T1, human podocalyxin (human, UniProt O00592 23-558).
T1 construct: also called hPodo; hPodocalyxin
T1 sequence: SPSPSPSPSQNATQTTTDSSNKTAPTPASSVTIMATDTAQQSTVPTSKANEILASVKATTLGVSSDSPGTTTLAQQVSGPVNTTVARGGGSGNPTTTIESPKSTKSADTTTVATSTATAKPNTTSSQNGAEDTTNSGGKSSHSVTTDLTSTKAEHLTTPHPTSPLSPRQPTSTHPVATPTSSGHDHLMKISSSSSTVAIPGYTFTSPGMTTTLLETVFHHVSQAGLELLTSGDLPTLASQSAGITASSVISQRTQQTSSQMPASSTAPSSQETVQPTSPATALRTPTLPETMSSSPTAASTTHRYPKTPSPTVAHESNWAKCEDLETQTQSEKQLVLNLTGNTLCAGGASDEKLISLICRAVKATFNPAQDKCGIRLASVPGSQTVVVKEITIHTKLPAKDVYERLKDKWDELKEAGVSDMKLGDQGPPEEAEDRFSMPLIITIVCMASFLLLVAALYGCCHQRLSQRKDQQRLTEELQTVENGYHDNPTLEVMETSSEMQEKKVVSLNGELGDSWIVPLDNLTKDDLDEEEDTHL
Nature of the experiment: flow cytometry, supernatant 2:15 (so in the source), MDA-MB-231 cells. The protocol: (§1) The following antibodies were transiently transfected in 293HEK cells, transfected cells were incubated for 96 hours, antibody containing supernatant was then serially titrated in FACS sample buffer. The following supernatants were used as test samples:
(§2) MDA transient transfectants were established as essentially described above in Example 1. MDA transient transfectants and MDA-MB-231 cells were seeded in 96-well v bottom plates at 75,000 cells/well. Cells were pelleted by centrifugation at 400 g for 3 min. Supernatant was removed. The cell pellets were resuspended in 20 μl of the antibody or control supernatants. The plate was incubated on ice for 1 hour.
(§3) The cells were washed by adding 200 μl FACS buffer to dilute unbound antibody. The plate was centrifuged at 400 g for 3 min to pellet cells. The supernatant was removed and repeated. The cell pellets were resuspended in 25 μl of either goat anti-Hu IgG Fc-Alexa647, goat anti-Mouse IgG Fc-Alexa647, or goat anti-rabbit IgG0Fc-A647 (2 μg/ml) and 7A.A.D (2.5 μg/ml). The plates were incubated on ice for 0.5 hours. The wash procedure was again repeated 2×. The cell pellets were finally resuspended in 75 μl FACS buffer and read on the HTFC™ Screening System (IntelliCyt Corporation) (3 sec sip, 1.5 up time) and analyzed on the HyperView® software (IntelliCyt Corporation).
For orientation: In flow cytometry, cells or beads pass a laser one at a time.

The target in experiment [2] is T1, human podocalyxin. Nature of the experiment: flow cytometry titration on 293-6E cells (endogenous podocalyxin), 48 hours at 4 C. The protocol: (§4) The affinities of huPodo 83 1:1 and huPodo 83 2:1 antibodies were determined against endogenously expressed podocalyxin on 293 HEK cells. 293-6E cells were seeded in 96-well v bottom plates at 100,000 cells/well. The cells were pelleted at 400 g for 3 min and the supernatant was discarded. The cells were placed on ice and antibody 1:3 titrations were prepared using ice cold medium. The cells were resuspended in the prepared antibody titrations at 25 μl/well and incubated at 4° C. for either 24 or 48 hours. 200 μl 1% FBS/PGS (FACS buffer) was added to each well. The cells were pelleted at 400 g for 3 min and supernatant removed. The wash was repeated 2 more times. The cells were resuspended in goat anti-human IgGFc-A647 (2 μg/ml)+2.5 μg/ml 7AAD and incubated on ice for 30 min. The cells were washed as above and resuspended in 50 μl FACS buffer. The cells were analyzed by flow cytometry using the HTFC™ Screening System (IntelliCyt Corporation) (3 sec sip, 1.5 sec up) and the C6 cytometer (Becton Dickenson).

Experiment [3] addresses T1, human podocalyxin. Nature of the experiment: flow cytometry titration on 293-6E cells (endogenous podocalyxin), 24 hours at 4 C. The protocol: as §4
Experiment [4] concerns the target T1, human podocalyxin. Nature of the experiment: flow cytometry, supernatant 1:5, hPodo/MDA-MB-231 transient transfectants. The protocol: as §1, §2, §3
Experiment [5] concerns the target T1, human podocalyxin. The experiment is described as follows: flow cytometry, supernatant 1:125, MDA-MB-231 cells. The procedure:
as §1, §2, §3

Experiment [6] addresses T1, human podocalyxin. Nature of the experiment: flow cytometry, supernatant Neat, hPodo/MDA-MB-231 transient transfectants. The procedure: as §1, §2, §3
Experiment [7] addresses T1, human podocalyxin. The experiment is described as follows: flow cytometry, supernatant 2:15 (so in the source), hPodo/MDA-MB-231 transient transfectants. The procedure: as §1, §2, §3
In experiment [8] the target is T1, human podocalyxin. Nature of the experiment: flow cytometry, supernatant 1:125, hPodo/MDA-MB-231 transient transfectants. The protocol:
as §1, §2, §3

The target in experiment [9] is T1, human podocalyxin. The experiment is described as follows: kinetic exclusion assay (KinExA 3200), MDA-MB-231 cells. The protocol:
The concentration dependence of free anti-podocalyxin antibody as a function of MDA-MB231 cell number was determined using a KinExA 3200 instrument (Sapidyne Instruments). Briefly, MDA-MB-231 cells, which express endogenous podocalyxin, were titrated 1:2 from 10×10⁶ cells/mL down 12 steps, and incubated with a fixed concentration of anti-podocalyxin antibodies. MDA-MB231 cells and cell bound antibodies were then isolated by centrifugation. Supernatant containing free, unbound antibody was then transferred to a new tube. The supernatant containing free unbound antibody was passed over the column containing PMMA beads coated with a goat anti-IgG-Fc capture antibody. The amount of free antibody captured on the PMMA beads was then measured using a goat anti-IgG-Fc-A647. This process was repeated for every cell concentration. For each sample assayed a new column of PMMA beads with the goat anti-IgG-Fc capture antibody was packed. The concentration of free antibody over the entire 12 step dilution series was then used to determine the antibody Kd's using the standard Kd template in the KineExA Pro Software (Sapidyne Instruments).
A general note: In KinExA the mixture passes briefly over coated beads that capture the unbound partner.

The target of experiment [10] is T1, human podocalyxin. The experiment is described as follows: flow cytometry, supernatant Neat, MDA-MB-231 cells. The procedure:
as §1, §2, §3

Experiment [11] has as its target T1, human podocalyxin. Nature of the experiment: kinetic exclusion assay (KinExA 3200), A172 cells.
For experiment [12], the target named is T1, human podocalyxin. The experiment is described as follows: flow cytometry, supernatant 1:5, MDA-MB-231 cells. The procedure:
as §1, §2, §3

B1: Rb/Hu Podo83 (Podo83 rabbit VH and VL, human IgG1 chimera) (antibody, V domains shown)
VH: QSLAESGGRLVTPGTPLTLTCTASGIDLSSYAMGWVRQAPGKGLEYIGFIYASGSIFYASWAKGRFTISKTSSTTVDLKMTSLTTEDTATYFCARAGYYFGGNYDLNLWGQGTLVTVSS
VL: DIVLTQTPASVEVAVGGTVTIKCQASQSISNYLAWYQRKPGQPPRLLIYRASTLASGVSSRFKGSGSGTQFTLTISGVECADAATYYCQQGYVSNNLDNIFGGGTEVVVK
notes: Rabbit variable domains cloned into human IgG1 and human Ig kappa constant region constructs (pTT5/IgG1, pTT5/Igk); also called anti-PODO; Ab-1
With B1, the “flow cytometry fluorescence (name not given)” value with human podocalyxin [1] worked out at 102000; in the experiment with human podocalyxin [4], 99300; in the experiment with human podocalyxin [5] it was 50600; with human podocalyxin [6], 79000; in the experiment with human podocalyxin [7] it was 155000; with human podocalyxin [8] it was 58500. Besides, the “flow cytometry fluorescence (name not given)” value with human podocalyxin [10] turned out to be 143000; in the experiment with human podocalyxin [12] it was 121000. Besides, the results for the half-inhibitory concentration (IC50) with human podocalyxin [2] and with human podocalyxin [3] were 0.0305 µg/mL and 0.0295 µg/mL, respectively. The Kd with human podocalyxin [9] is 0.0456 nM; with human podocalyxin [11] it was 0.103 nM.

The IC50 is the concentration at which inhibition is half-maximal. A lower IC50 goes with greater potency in that assay. A word on the Kd: it is a measure of binding affinity in units of concentration.
